Reference: patent US9012398B2

target: human GLP-1 receptor (human) (UniProt P43220)

Point of comparison: “N-ε^12-(2-(2-(2-(2-(2-(2-(2-(2-(2-Octadecanoylamino) ethoxy)ethoxy)acetylamino)ethoxy)ethoxy)acetylamino)ethoxy)ethoxy)acetyl)) [Lys^12,Leu^14,Arg^27,Gln^28]Exendin-4-(1-39)-amide (from UniProt P26349) (peptide)”, GLP1cAMPma (3693) [EC50 (nM)] Mean Value 0.0035 nM. Against it:
- N-ε^32-(2-(2-(2-(2-(2-(2-(2-(2-(2- (Octadecanoylamino)ethoxy)ethoxy)acetylamino)ethoxy)ethoxy)acetyl- amino)ethoxy)ethoxy)acetyl))[Arg^12,Leu^14,Val^27,Arg^28,Lys^32]Exendin-4 (1-39)amide (from UniProt P26349) (peptide) — 7.7-fold higher, 0.027 nM
- N-ε^27-[2-(2-[2-(2-[2-(2-[4-hexadecanoylamino-4(S)- carboxybutyrylamino]ethoxy)ethoxy]acetylamino)ethoxy]ethoxy)acetyl] [Arg^12,Leu^14,Lys^27]Exendin-4(1-39)amide (from UniProt P26349) (peptide) — 2-fold higher, 0.007 nM
- N-ε^32-(2-(2-(2-(2-(2-(2-(4-(Octadecanoylamino)-4(S)- carboxybutyrylamino))ethoxy)ethoxy)acetylamino)ethoxy) ethoxy)acetyl[Arg^12,Leu^14,Val^27,Arg^28,Lys^32]Exendin-4-(1-39)amide (from UniProt P26349) (peptide) — 7.1-fold higher, 0.025 nM
- N-epsilon20-{2-(2-(2-(2-[2-(2-(4-(hexadecanoylamino)-4-(S)- carboxybutyrylamino)ethoxy)ethoxy]acetyl)ethoxy)ethoxy)acetyl)}- [[Aib2,Lys20,Gln28]Exendin-4-amide (from UniProt P26349) (peptide) — 2.7-fold higher, 0.0095 nM
- N-ε^20-[2-(2-[2-(2-[2-(2-[4-(17-Carboxyheptadecanoylamino)-4(S)- carboxybutyrylamino]ethoxy)ethoxy]acetylamino)ethoxy]ethoxy)acetyl] [Aib^2;Gln^28,Lys^20]exendin-4(1-39)amide (from UniProt P26349) (peptide) — 29-fold higher, 0.1 nM
- N-ε^27-[2-(2-[2-(2-[2-(2-[4-hexadecanoylamino-4(S)- carboxybutyrylamino]ethoxy)ethoxy]acetylamino)ethoxy]ethoxy)acetyl] [Arg^12,Leu^14,Lys^27,Ala^29]Exendin-4-(1-39)-amide (from UniProt P26349) (peptide) — 43-fold higher, 0.15 nM
- N-ε^28-(2-(2-(2-(2-(2-(2-(2-(2-(2- (Octadecanoylamino)ethoxy)ethoxy)acetylamino)ethoxy)ethoxy)acetyl- amino)ethoxy)ethoxy)acetyl))[Arg^12,Val^27,Lys^28]Exendin-4(1-39)amide (from UniProt P26349) (peptide) — 12-fold higher, 0.041 nM
- N-ε^28-(2-(2-(2-(2-(2-(2-(2-(2-(2- (Octadecanoylamino)ethoxy)ethoxy)acetylamino)ethoxy)ethoxy)acetyl- amino)ethoxy)ethoxy)acetyl))[Arg^12,Leu^14,Val^27,Lys^28 Exendin-4(1- 39)amide (from UniProt P26349) (peptide) — 7.1-fold higher, 0.025 nM
- N-ε^27-{2-(2-(2-(2-[2-(2-(4-(hexadecanoylamino)-4(S)- carboxybutyrylamino)ethoxy)ethoxy]acetylamino)ethoxy)ethoxy) acetyl)}[Gln^12,Leu^14,28,Lys^27]Exendin-4(1-39)amide (from UniProt P26349) (peptide) — 12-fold higher, 0.041 nM
- N-ε^20-{2-(2-(2-(2-[2-(2-(4-(hexadecanoylamino)-4- carboxybutyrylamino)ethoxy)ethoxy]acetylamino)ethoxy)ethoxy)acetyl)}- [Gln^12,Leu^14,Gln^28,Lys^20]Exendin-4-amide (from UniProt P26349) (peptide) — 6-fold higher, 0.021 nM
- N-ε^28-{2-(2-(2-(2-[2-(2-(4-(hexadecanoylamino)-4- carboxybutyrylamino)ethoxy)ethoxy]acetylamino)ethoxy)ethoxy) acetyl)}-[Leu^14,Lys^20]Exendin-4-amide (from UniProt P26349) (peptide) — 3.1-fold higher, 0.011 nM
- N-ε^20-[2-(2-[2-(2-[2-(2-[4-Octadecanoylamino-4(S)- carboxybutyrylamino]ethoxy)ethoxy]acetylamino)ethoxy]ethoxy)acetyl] [Arg^12,27,Gln^28,Leu^14,Lys^20 Exendin-4(1-39)amide (from UniProt P26349) (peptide) — 13-fold higher, 0.044 nM
- N-ε^28-[2-(2-[2-(2-[2-(2-[4-hexadecanoylamino-4(S)- carboxybutyrylamino]ethoxy)ethoxy]acetylamino)ethoxy]ethoxy)acetyl] [alfa-Me-Phe^6,Arg^12,Val^27,Lys^28,Ala^29]Exendin-4-(1-39)-amide (from UniProt P26349) (peptide) — 15-fold higher, 0.052 nM
- N-ε^27-2-(2-2-(2-(2-(2-(2-(2-(2- (Octadecanoylamino)ethoxy)ethoxy)acetylamino)ethoxy)ethoxy)acetyl- amino)ethoxy)ethoxy)acetyl[Arg^12,Leu^14,Lys^27,Leu^28]Exendin-4- (1-39)-amide (from UniProt P26349) (peptide) — 14-fold higher, 0.049 nM
- N-ε^27-2-(2-2-(2-(2-(2-(4-(Hexadecanoylamino)-4(S)- carboxybutyrylamino)ethoxy)ethoxy)acetylamino)ethoxy) ethoxy)acetyl[Arg^12,Leu^14,Lys^27,Leu^28]Exendin-4-(1-39)-peptide amide (from UniProt P26349) — 27-fold higher, 0.093 nM
- N-ε^14-(2-(2-(2-(2-(2-(2-(17- carboxyheptadecanoylamino)ethoxy)ethoxy)acetylamino)ethoxy) ethoxy)acetyl[Arg^12,Lys^14,Val^27,Arg^28]Exendin-4-(1-39)-amide (from UniProt P26349) (peptide) — 1000-fold higher, 3.65 nM
- N-ε^20-(2-(2-(2-(2-(2-(2-(17- carboxyheptadecanoylamino)ethoxy)ethoxy)acetylamino)ethoxy) ethoxy)acetyl[Aib^2,Lys^20,Ala^29,Ser(O-benzyl)^39]Exendin-4-(1-39)-amide (from UniProt P26349) (peptide) — 66-fold higher, 0.23 nM
- N-ε^20-(2-(2-(2-(2-(2-(2-(17- carboxyheptadecanoylamino)ethoxy)ethoxy)acetylamino)ethoxy) ethoxy)acetyl)[Arg12,Leu^14,Arg^27,Gln^28,Lys^20]Exendin-4 (1-39)amide (from UniProt P26349) (peptide) — 1600-fold higher, 5.45 nM
- N-ε^20-{2-(2-(2-(2-[2-(2-(4-(hexadecanoylamino)-4- carboxybutyrylamino)ethoxy)ethoxy]acetylamino)ethoxy)ethoxy) acetyl)}-[Leu^14,Gln^28,Lys^20]Exendin-4-amide (from UniProt P26349) (peptide) — 6.6-fold higher, 0.023 nM
- N-ε^27-{2-(2-(2-(2-[2-(2-(4-(hexadecanoylamino)-4(S)- carboxybutyrylamino)ethoxy)ethoxy)acetylamino)ethoxy)ethoxy)acetyl} [Leu^14,28,Lys^27]Exendin-4(1-39)amide (from UniProt P26349) (peptide) — 54-fold higher, 0.19 nM
- N-ε^20-[2-(2-[2-(2-[2-(2-[4-(hexadecanoylamino)-4(S)- carboxybutyrylamino]ethoxy)ethoxy]acetylamino)ethoxy]ethoxy)acetyl] [Imidazoylpropionyl^1,Lys^20,Gln^28]Exendin-4-(1-39)-amide (from UniProt P26349) (peptide) — 12-fold higher, 0.042 nM
- N-ε^27-2-(2-2-(2-(2-(2-(4-(Octadecanoylamino)-4(S)- carboxybutyrylamino)ethoxy)ethoxy)acetylamino)ethoxy)ethoxy)acetyl [Arg^12,Leu^14,Lys^27,Leu^28]Exendin-4-(1-39)-amide (from UniProt P26349) (peptide) — 40-fold higher, 0.14 nM
- N-ε^27-(2-(2-(2-(2-(2-(2-(17- carboxyheptadecanoylamino)ethoxy)ethoxy)acetylamino)ethoxy) ethoxy)acetyl[Arg^12,Leu^14,Lys^27,Ala^29]Exendin-4-(1-39)-amide (from UniProt P26349) (peptide) — 1600-fold higher, 5.6 nM
- N-ε^20-[2-(2-[2-(2-[2-(2-[4-hexadecanoylamino-4(S)- carboxybutyrylamino]ethoxy)ethoxy]acetylamino)ethoxy]ethoxy)acetyl] [Arg^12,27,28,Leu^14,Lys^20]Exendin-4(1-39)amide (from UniProt P26349) (peptide) — 7.7-fold higher, 0.027 nM
- N--ε^20-{2-(2-(2-(2-[2-(2-(4-(hexadecanoylamino)-4- carboxybutyrylamino)ethoxy)ethoxy]acetyl)ethoxy)ethoxy)acetyl)}- [Leu^14,Gln^27,Gln^28,Lys^20]Exendin-4-amide (from UniProt P26349) (peptide) — 27-fold higher, 0.093 nM
- N-ε^34-[2-(2-[2-(2-[2-(2-[4-hexadecanoylamino-4(S)- carboxybutyrylamino]ethoxy)ethoxy]acetylamino)ethoxy]ethoxy)acetyl] [Arg^12,27,Leu^14,Lys^34]Exendin-4(1-39)amide (from UniProt P26349) (peptide) — 5.1-fold higher, 0.018 nM
- N-ε^20-(2-(2-(2-(2-(2-(2-(2-(2-(2- (Octadecanoylamino)ethoxy)ethoxy)acetylamino)ethoxy)ethoxy)acetyl- amino)ethoxy)ethoxy)acety))[Arg^12,27,28,Leu^14,Lys^20 Exendin-4(1- 39)amide (from UniProt P26349) (peptide) — 2-fold higher, 0.007 nM
- N-ε^27-2-(2-(2-(2-(2-(2-(4-(Octadecanoylamino)-4(S)- carboxybutyrylamino)ethoxy)ethoxy)acetylamino)ethoxy) ethoxy)acetyl[Arg^12,Leu^14,Lys^27,Ala^29]Exendin-4-(1-39)-amide (from UniProt P26349) (peptide) — 69-fold higher, 0.24 nM
- N-ε^20-{2-(2-(2-(2-[2-(2-(4-(hexadecanoylamino)-4- carboxybutyrylamino)ethoxy)ethoxy]acetylamino)ethoxy)ethoxy) acetyl)}-[Gln^28,Lys^20]Exendin-4-amide (from UniProt P26349) (peptide) — 9.4-fold higher, 0.033 nM
